Results on one substance are retold here after paper doi:10.1101/2025.06.17.660082.

pKd: −log10 of the molar value.

In the test the target is Biotinylated SP16 (human) (UniProt P01009). The test can be described thus: SPR. Background: Surface plasmon resonance follows binding to a sensor surface in real time, without labels.

A word on the pKd: it is −log10 of the Kd, conventionally taken in molar units. Read a low pKd as a high Kd. For the substance “Recombinant human insulin receptor/CD220 (28-944) protein, His Tag (from UniProt P06213-2 28-944)”, the negative-log Kd (pKd) was 6.73.
